Test results taken from doi:10.1101/2025.11.12.687969 (bioRxiv, 2025).

Target: EGFP–TDP-43 (human, UniProt Q13148 1-414)
Experiment: co-IP

reduction of the association index relative to WT (log2): 0.77 log2 units
B1: Myc–TDP-43 ΔNLS (natural protein, human, UniProt Q13148-1 1-414, looked up)
chain: MSEYIRVTEDENDEPIEIPSEDDGTVLLSTVTAQFPGACGLRYRNPVSQCMRGVRLVEGILHAPDAGWGNLVYVVNYPKDNAAAMDETDASSAVKVKRAVQKTSDLIVLGLPWKTTEQDLKEYFSTFGEVLMVQVKKDLKTGHSKGFGFVRFTEYETQVKVMSQRHMIDGRWCDCKLPNSKQSQDEPLRSRKVFVGRCTEDMTEDELREFFSQYGDVMDVFIPKPFRAFAFVTFADDQIAQSLCGEDLIIKGISVHISNAEPKHNSNRQLERSGRFGGNPGGFGNQGGFGNSRGGGAGLGNNQGSNMGGGMNFGAFSINPAMMAAAQAALQSSWGMMGMLASQQNQSGPSGNNQNQGNMQREPNQAFGSGNNSYSGSNSGAAIGWGSASNAGSGSGFNGGFGSSMDSKSSGWGM
